Test results taken from the supplement of paper PMC12764529.

Assay: folding stability dG unfold (combined trypsin and chymotrypsin); higher = more stable
Protocol: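 Folding stability of de novo designed mini-proteins (<80 aa, no Cys; designed by TrROS, TrMRF, ProteinMPNN and the joint model) was measured by cDNA display proteolysis with trypsin and chymotrypsin. Each protease was used at 11 concentrations in a threefold dilution series plus a no-protease condition. K50 was inferred by Bayesian fitting of sequencing counts, and dG unfold was derived against a sequence-predicted unfolded-state K50 (Tsuboyama et al. method). Sequences shown include variable-length N-terminal GS-type padding (SAGGSAGG...) inside a display construct carrying a PA tag. Rows were kept only if the AF2 dimer inter-PAE was >15, to exclude likely homo-oligomers.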

Folding stability dG unfold, < -1 kcal/mol:
SAGGSAGGSAGGAMPSDVLSTTTEPVAPTGSKTVSAPDAVVTVTLDPNTPVATTKTYGVSAGGSAGGSAGGS [r10_965_JUSTAS]
SAGGSAGGSAGGEKTIFIPPDNPEKLADEAQKKGLTVEREPNSWLKVNGKKIRIIIMPPSAGGSAGGSAGGS [r10_930_TrROS]
SAGGSAGGSAGGEPEPIPFRIKPHDEDGKKKGTFPINPLQKKGIPAEEFADKNGFEIEISAGGSAGGSAGGS [r10_153_TrROS]
SAGGSAGGSAGGGAKPNQPVKVKIKYELLREEKELLPDGSVKTKKEVKVEIEGYEDADFKSAGGSAGGSAGG [r7_919_TrMRF]
SAGGSAGGSAGGGFEITLPDKPIKVLEARFIPEKKLVEVLAEHPDGVLVRGVFPPELKLGSAGGSAGGSAGG [r7_427_TrMRF]
SAGGSAGGSAGGGHMIYVPPSATLEEAEKLAKELGIEDAEIIPVPEGEPLFFTPEWKLVSAGGSAGGSAGGS [r10_1083_JUSTAS]
SAGGSAGGSAGGGKNRPVIPITEGDKDEAKEFADTFQKEWRRQNGEPAQNVDIDIVPTPSAGGSAGGSAGGS [r10_1216_TrROS]
SAGGSAGGSAGGGKVYVFRAPDALVLVPVEENPDTDEFTVTVDPGGDDPDIAKKLAEALSAGGSAGGSAGGS [r10_582_TrMRF]
SAGGSAGGSAGGGMTVEEDPSSNIVTERIEYPDSIVTITRKRTPNPSWVTLATTTTPLGSAGGSAGGSAGGS [r10_840_JUSTAS]
SAGGSAGGSAGGGPGLSVTTTVLVPKDPSTSVLTVPLPPSATVTAVTPETNTVTVRTASSAGGSAGGSAGGS [r10_247_JUSTAS]
SAGGSAGGSAGGGPMVTRTIPRGVVVTKAELKDDKPVKYTVVKEEPVPVTVRALPEELLSAGGSAGGSAGGS [r10_492_JUSTAS]
SAGGSAGGSAGGGSSMPLIPRKIETVEKPFRLPNGDVVIETTEIDTDADVEIPSVEVVLKSAGGSAGGSAGG [r7_213_JUSTAS]
SAGGSAGGSAGGGVRIKVEYPNNGQPHEFPIDENWTAESIKDKLEDRGLPPNHKITKIEPSAGGSAGGSAGG [r7_70_TrROS]
SAGGSAGGSAGGIYEKAVEFAKAKGGKDIPVKIKYPDGSVKTLNVDDLPDLKSENVEIVPSAGGSAGGSAGG [r7_863_TrMRF]
SAGGSAGGSAGGKIEVDVETERHDGRPYYEVEIRHPDNGKPVEIPMPMNNPEEALKAAKSAGGSAGGSAGGS [r10_271_TrROS]
SAGGSAGGSAGGKIEVEEDPANGMYRVEIQFPENGKPIEVWVRPGRTLEKAKDKAKELMKSAGGSAGGSAGG [r7_138_TrROS]
SAGGSAGGSAGGLTEEEILKKLGLSPDVELLEMPREPERGVYYVKVKKGEGPEEFVVEESAGGSAGGSAGGS [r10_17_JUSTAS]
SAGGSAGGSAGGMELPNLVPVETVPVGDSTVRLYELPGKPLRVTVTENGDNVTVELEEPPSAGGSAGGSAGG [r7_940_JUSTAS]
SAGGSAGGSAGGMKVVFNIHRPDSDEVLTVDDMEKLKETSLEELAKKLEEENGYPVEVVLSAGGSAGGSAGG [r7_259_JUSTAS]
SAGGSAGGSAGGMLPNPKTIKVPLKPGETKEKVKEEAEKKFPPGKITVTVSEDGTATVLVSAGGSAGGSAGG [r7_273_JUSTAS]
SAGGSAGGSAGGMRISIHHPKNGNPRHIPIDDIRNLPGPYKIHVEGPNPELAKEFLEQFSAGGSAGGSAGGS [r10_419_TrROS]
SAGGSAGGSAGGMTVKEIAEKLGLPPGLKVEDIPLDPPNGYFEIEITHDDGPHTYRIPISAGGSAGGSAGGS [r10_17_TrROS]
SAGGSAGGSAGGMVSISVSEDPATGTYTVTATRTGAPRTVTVPVGASEAEARARVEAALSAGGSAGGSAGGS [r10_192_JUSTAS]
SAGGSAGGSAGGNKIVIPFEELEEARENGDPHKARKLVRERGMDPEDVTIEIITPEALKESAGGSAGGSAGG [r7_7_TrROS]
SAGGSAGGSAGGPERLVLASFIPGPRLLHVVEVSLDGVGASISPSVFSIHPDRPDEIEPVSAGGSAGGSAGG [r7_866_TrMRF]
SAGGSAGGSAGGPIKIDVQVMPHDNEWYIMIRREYPYPDGKRQEREIMIPADNVKDLDDISAGGSAGGSAGG [r7_835_TrROS]
SAGGSAGGSAGGPKIEIPMVHLHPNGTITVMRMKMEYDPNGKFEIKKMEMHTVPADDIKDSAGGSAGGSAGG [r7_521_TrROS]
SAGGSAGGSAGGPNPRIIPLTFPVKDKEAVILLPPGVKPASIEVDPEDGRIRVNAVDPLSAGGSAGGSAGGS [r10_906_TrMRF]
SAGGSAGGSAGGPPFQIHIRDKGEERTIPVDSPDDIKELLEEKGAEIKDVHPNSGTITVKSAGGSAGGSAGG [r7_726_TrROS]
SAGGSAGGSAGGPPPEKAAAYLVKYRNPDGGPLGTRPVELPPDRPEVEHDPSFVSVEVASAGGSAGGSAGGS [r10_675_JUSTAS]
SAGGSAGGSAGGPTVTYKPPSGNVRTVEVPASRPEVVAELKAAGGEVVVVDAETGEEVLLSAGGSAGGSAGG [r7_430_JUSTAS]
SAGGSAGGSAGGQPITLPDANNGFKEVEIMPTPKKWRITAENPETGQKKEFPIEDPEAVSAGGSAGGSAGGS [r10_772_TrROS]
SAGGSAGGSAGGRGVLLVFRLDGEVRPTPDGEPVLELTDLEVEEREVTVTRDADGVLHAGSAGGSAGGSAGG [r11_381_TrMRF]
SAGGSAGGSAGGSGELELTVVSPLPDGTVKVTRYRVELPEDGLEITEVETEEVPPEEAGSAGGSAGGSAGGS [r4_389_TrMRF]
SAGGSAGGSAGGSGELTMMMVEPNPDGRVKVRTFKIELPPGGLKIDEVEEKTIPPEDAKSAGGSAGGSAGGS [r4_389_TrROS]
SAGGSAGGSAGGSGNFTIDPALLEEARAEAAAAGEALETIPLKVTRPGGETKTIDIKVGSAGGSAGGSAGGS [r4_367_JUSTAS]
SAGGSAGGSAGGSGNGMKLVKKKEVVKEEGAVVKLPNGETIEVPPDETITVEIEEEVSLSAGGSAGGSAGGS [r4_26_JUSTAS]
SAGGSAGGSAGGSGSMEPQVVLRVTDTRGGNPTVTIYSPDVPLPPSPTTTVEPRPVSLESAGGSAGGSAGGS [r4_107_JUSTAS]
SAGGSAGGSAGGSMKISLEFKVPIYEEFPGKEKPVEEVEVPVEVPENNEEEAEKIKKELSAGGSAGGSAGGS [r4_153_JUSTAS]
SAGGSAGGSAGGSMVAYITTKGKKLEIEVPEDLPEEIKEELKKKGIPIESITFEEVEPESAGGSAGGSAGGS [r10_405_JUSTAS]
SAGGSAGGSAGGSMVTTKDPNSPVTYTLVPRPTPEELVVKTTTNPDGTPTVTLLPASLLSAGGSAGGSAGGS [r4_434_JUSTAS]
SAGGSAGGSAGGSMYRIEIKMPNNPRTIWVPPDELPDDDLEEIAKENFPNIDKIKVWRWSAGGSAGGSAGGS [r4_235_TrROS]
SAGGSAGGSAGGSPEELAAAIRAEGREAEIEVTPDEVTIRLTAPDGRRSTLTVPRAALASAGGSAGGSAGGS [r10_1029_JUSTAS]
SAGGSAGGSAGGSPFTIRNPNGMQVRIDDFDPEEGKVKIEIEMPNKPVEYPIPLDDIIFSAGGSAGGSAGGS [r4_110_TrROS]
SAGGSAGGSAGGSPMLLVRVKKTNKWISLEEALEEAEKKGEEIEIEEVEVVELPPGQEPSAGGSAGGSAGGS [r4_479_TrROS_Hall]
SAGGSAGGSAGGSQNEVQIPFNNMPPQQARNIADEALDKNKDIENIEVERDDGMFKVKVSAGGSAGGSAGGS [r4_330_TrROS]
SAGGSAGGSAGGSRKINIFFDDPEQARKFAREIRNEGLPPEDMPIKVEITPIPPEDMGASAGGSAGGSAGGS [r4_281_TrROS]
SAGGSAGGSAGGSTPSGTLKEVSEEVEPDGIRITTTTYSLPNPGVFKTVVTVEPEAREESAGGSAGGSAGGS [r4_163_JUSTAS]
SAGGSAGGSAGGSVKTPEGVEVAPDEPVEERVEHPPVARPVKVTLYALPNSNEYSEEIASAGGSAGGSAGGS [r4_13_JUSTAS]
SAGGSAGGSAGGSVVPPGAKVKVTLEGEEKVVEADSLSEIGEIKIGDKWVKVKKIEVEGSAGGSAGGSAGGS [r4_214_TrMRF]
SAGGSAGGSAGGTIKELAKEAAKKNPGWVPIRIPLPNGNPWKIRVQVDEPGKNRIEIEPSAGGSAGGSAGGS [r10_395_TrROS]
SAGGSAGGSAGGTISFPTSSGLIKVEDMTIEEAKEKLKKENPNAKVIKLPTPNVYLIEVKSAGGSAGGSAGG [r7_370_JUSTAS]
SAGGSAGGSAGGTVEELAKQIQEEWQENGFKVEKVEVEDGTIKIEWKNGRQREIPFEKGSAGGSAGGSAGGS [r10_169_TrROS]
SAGGSAGGSAGGWYISIEPKNKKEKTIMIPPGDPDILEELADNGDRVSIFDPKNGKEFKVSAGGSAGGSAGG [r7_430_TrROS]
SAGGSAGGSAGKIRIDARPNGNWRAHYPGGKEHEFNSPDDIKDELEKKFPNFDIIEIEPWSAGGSAGGSAGG [r11_806_TrROS]
SAGGSAGGSAGKKIEIDEANPEENMYRISFPDKRTHQFDSAEDLKEQIPPGIPVEIEPLKSAGGSAGGSAGG [r17_295_TrROS]
SAGGSAGGSAGKTIMIRDPEALKKLPENQKIRIPDGKPFKIKKVEYVEENGWHRFTIKPESAGGSAGGSAGG [r11_316_TrROS]
